{"source": "paper PMC10127277", "about": "(2023)", "binders": {"B1": {"name": "human ZNRF3 extracellular domain (domain or fragment)", "chain": "KETAFVEVVLFESSPSGDYTTYTTGLTGRFSRAGATLSAEGEIVQMHPLGLCNNNDEEDLYEYGWVGVVKLEQPELDPKPCLTVLGKAKRAVQRGATAVIFDVSENPEAIDQLNQGSEDPLKRPVVYVKGADAIKLMNIVNKQKVARARIQHRPPRQPTEYFDM", "modifications": "biotinylated (BirA ligase)"}, "B2": {"name": "human RNF130 (GOLIATH) extracellular domain (domain or fragment)", "chain": "DNASQEYYTALINVTVQEPGRGAPLTFRIDRGRYGLDSPKAEVRGQVLAPLPLHGVADHLGCDPQTRFFVPPNIKQWIALLQRGNCTFKEKISRAAFHNAVAVVIYNNKSKEEPVTMTHPGTGDIIAVMITELRGKDILSYLEKNISVQMTIAVGTRMPPKNFSRGS", "modifications": "biotinylated (BirA ligase)"}, "B3": {"name": "human RNF43 extracellular domain (domain or fragment)", "chain": "GFGRTGLVLAAAVESERSAEQKAIIRVIPLKMDPTGKLNLTLEGVFAGVAEITPAEGKLMQSHPLYLCNASDDDNLEPGFISIVKLESPRRAPRPCLSLASKARMAGERGASAVLFDITEDRAAAEQLQQPLGLTWPVVLIWGNDAEKLMEFVYKNQKAHVRIELKEPPAWPDY", "modifications": "biotinylated (BirA ligase)"}}, "assay_in_all_cases": "SPR", "key": {"ZNRF3-A10": {"biological_target": "ZNRF3-A10"}, "RNF130-A1": {"biological_target": "RNF130-A1"}, "RNF43-A7": {"biological_target": "RNF43-A7"}}, "data": [{"binder": "B1", "values": [{"measurement": "Kd", "setting": "ZNRF3-A10", "result": 0.7, "unit": "nM"}]}, {"binder": "B2", "values": [{"measurement": "Kd", "setting": "RNF130-A1", "result": 8.2, "unit": "nM"}]}, {"binder": "B3", "values": [{"measurement": "Kd", "setting": "RNF43-A7", "result": 3.8, "unit": "nM"}]}]}
